Test results: patent publication US12723105 (BEIJING STARMAB BIOMED TECHNOLOGY, dated 2026)

Columns and labels:
[1] = biological target: T1, CD47 natively expressed on tumor cell surface (Jurkat, HL60 cells) (human, UniProt Q08722 19-323); test: flow cytometry on HL60 cells (express CD47 but not PD-L1)
T1 construct: whole, on cells; also called CD47 on the HL60 cell surface; CD47 on the Jurkat cell surface

Human serum albumin [2] = biological target: T2, Human serum albumin (human, UniProt P02768 25-609); test: BLI (Octet) as in Example 1, His-tagged VHH, HSA
T2 construct: also called HSA

Monkey serum albumin = Monkey serum albumin (Monkey); test: BLI (Octet), cross-species albumin binding
Human serum albumin [3] = biological target: T2, Human serum albumin; test: BLI (Octet), cross-species albumin binding
Human CD16A = biological target: T3, Human CD16A (human, UniProt P08637 17-208, limits assumed); test: BLI (Octet) as in Example 1, His-tagged VHH, human CD16A
T3 construct: also called FcγRIIIa

mouse serum albumin = mouse serum albumin (mouse, UniProt P07724 25-608); test: BLI (Octet), cross-species albumin binding
Human PD-L1 antigen = biological target: T4, Human PD-L1 antigen (human, UniProt Q9NZQ7 19-238); test: BLI (Octet), His-tagged VHH on anti-penta-His tips, soluble human PD-L1
T4 construct: also called PD-L1 protein
T4 sequence (Q9NZQ7 19-238 limits assumed): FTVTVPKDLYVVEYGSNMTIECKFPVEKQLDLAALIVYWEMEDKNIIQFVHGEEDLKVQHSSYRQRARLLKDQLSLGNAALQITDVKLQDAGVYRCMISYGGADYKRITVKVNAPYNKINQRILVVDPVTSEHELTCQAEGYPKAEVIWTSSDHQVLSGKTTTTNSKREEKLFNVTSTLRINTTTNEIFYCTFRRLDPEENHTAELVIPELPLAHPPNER

T3 sequence (P08637 17-208 limits assumed): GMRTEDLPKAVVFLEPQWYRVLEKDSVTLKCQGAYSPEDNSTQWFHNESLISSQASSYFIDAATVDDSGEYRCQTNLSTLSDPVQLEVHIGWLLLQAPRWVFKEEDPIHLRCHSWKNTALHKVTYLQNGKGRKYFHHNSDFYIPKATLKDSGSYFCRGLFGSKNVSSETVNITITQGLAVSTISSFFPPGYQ

B1: 1518-HS5-GS15 (bispecific antibody)
chain: EVQLVESGGGLVQPGGSLRLSCAVSGSLFSARVMGWYRQAPGKQRELVAAITSGVRTDYADSVKGRFTISRDNAKRAVYLQMNSLKPEDTAVYYCNVNLYNTGNYWGQGTQVTVSSGGGGSGGGSEVQLLESGGGLVQPGGSLRLSCAASGRTFTTHAMGWFRQAPGKEREFVSAINWGGRTTYYADSVKGRFIISRDTGANTLYLQMNSLRAEDTAVYYCASNLDTYNVRAGTTNSWGQGTQVTVSSGGGGSGGGGSGGGGSEVQLVESGGGLVQPGGSLRLSCAASGGGRTFSNYALGWFRQAPGKEREFVAAISRSGGNINYADSVKGRFTISRDNFKNTVYLQMSSLRAEDTAVYYCAAHYLLLPSYISTSTNMYNYWGQGTQVTVSSAAAQVQLVESGGGLVQPGGSLRLSCAASGGGRTFSNYALGWFRQAPGKEREFVAAISRSGGNINYADSVKGRFTISRDNAKNTVYLQMSSLRAEDTAVYYCAAHYLLLPSYISTSTNMYNYWGQGTQVTVSSGGGGSGGGSEVQLVESGGGLVQPGGSLRLSCAASGGTFLTYSMSWVRQAPGKEREFVSSINWSGYMTYYADSVKGRFTISRDNSKNTLYLQMNSLRAEDTAVYYCAAARTAIAAKRSSEFDYWGQGTQVTVSSAAAEVQLVESGGGLVQPGGSLRLSCAASGGTFLTYSMSWVRQAPGKEREFVSSINWSGYMTYYADSVKGRFTISRDNSKNTLYLQMNSLRAEDTAVYYCAAARTAIAAKRSSEFDYWGQGTQVTVSS
notes: Multi-specific single chain antibody with the 15-residue linker (G4S)3 between the anti-HSA and anti-CD47 domains
EC50 [1]: 8.4 nM

B2: HS5 (VHH)
VHH: EVQLVESGGGLVQAGGSLRLSCAASGRTFTTHAMGWFRQAPGKEREFVATINWGGRTTYYADSVKGRFIISRDTGANTVYLQMNSLKPEDTAVYYCASNLDTYNVRAGTTNSWGQGTQVTVSS
notes: not shown: C-terminal His-tag
Kd (Human serum albumin [2]): 0.946 nM | koff (Human serum albumin [2]): 0.000765 s⁻¹ | kon (Human serum albumin [2]): 809000 M⁻¹ s⁻¹

B3: hHS5 (VHH)
VHH: EVQLLESGGGLVQPGGSLRLSCAASGRTFTTHAMGWFRQAPGKEREFVSAINWGGRTTYYADSVKGRFIISRDTGANTLYLQMNSLRAEDTAVYYCASNLDTYNVRAGTTNSWGQGTQVTVSS
notes: also called humanized HS5; not shown: C-terminal His-tag
Kd (Monkey serum albumin): 11.6 nM | Kd (Human serum albumin [3]): 0.817 nM

B4: CD16F1 (VHH)
VHH: EVQLVESGGGLVQPGGSLRLSCAVSGSLFSARVMGWYRQAPGKQRELVAAITSGVRTDYADSVKGRFTISRDNAKRAVYLQMNSLKPEDTAVYYCNVNLYNTGNYWGQGTQVTVSS
notes: not shown: C-terminal His-tag
Kd (Human CD16A): 4.68 nM | koff (Human CD16A): 0.000109 s⁻¹ | kon (Human CD16A): 23300 M⁻¹ s⁻¹

B5: HS6 (VHH)
VHH: EVQLVESGGGLVQAGGSLRLSCAASGRIFHTYAVGWFRQAPGKERESVVIINWSSDHTYVAQSVKGRFTISRDRAKNTFYLQMNSLKPEDTAVYYCAVRRRLYGLRESDFDSWGQGTQVTVSS
notes: not shown: C-terminal His-tag
Kd (Human serum albumin [2]): 0.498 nM | koff (Human serum albumin [2]): 0.000829 s⁻¹ | kon (Human serum albumin [2]): 1.67e+06 M⁻¹ s⁻¹

B6: CD16E11 (VHH)
VHH: QVQLVESGGGLVQPGGSLTLSCRASGFTFSNHAMSWVRQAPGKGLEWVSEISFNGHATRYADSLKGRFTISRDNAKNTLYLQMNTLKPEDTAVYYCRKGWNATPQIGERGRGTQVTVSS
notes: not shown: C-terminal His-tag
Kd (Human CD16A): 3.02 nM | koff (Human CD16A): 6e-05 s⁻¹ | kon (Human CD16A): 19900 M⁻¹ s⁻¹

B7: HS12 (VHH)
VHH: QVQLVESGGGSVQAGGSLRLSCAASGRTFISFSMGWFRQAPGKEREFVASITNSGSGILYGDSVKGRFTISRDNAKNTMYLQMNSLKPEDTAVYYCAAGTGAGRYRYASMFDYWGQGTQVTVSS
notes: not shown: C-terminal His-tag
Kd (Human serum albumin [2]): 0.568 nM | koff (Human serum albumin [2]): 0.000583 s⁻¹ | kon (Human serum albumin [2]): 1.03e+06 M⁻¹ s⁻¹

B8: 1518-HS5 (CD16F1-L1-hHS5-L1-hA09-10-3-L3-hA09-10-4-L1-hPL16-L3-hPL16) (bispecific antibody)
chain: EVQLVESGGGLVQPGGSLRLSCAVSGSLFSARVMGWYRQAPGKQRELVAAITSGVRTDYADSVKGRFTISRDNAKRAVYLQMNSLKPEDTAVYYCNVNLYNTGNYWGQGTQVTVSSGGGGSGGGSEVQLLESGGGLVQPGGSLRLSCAASGRTFTTHAMGWFRQAPGKEREFVSAINWGGRTTYYADSVKGRFIISRDTGANTLYLQMNSLRAEDTAVYYCASNLDTYNVRAGTTNSWGQGTQVTVSSGGGGSGGGSEVQLVESGGGLVQPGGSLRLSCAASGGGRTFSNYALGWFRQAPGKEREFVAAISRSGGNINYADSVKGRFTISRDNFKNTVYLQMSSLRAEDTAVYYCAAHYLLLPSYISTSTNMYNYWGQGTQVTVSSAAAQVQLVESGGGLVQPGGSLRLSCAASGGGRTFSNYALGWFRQAPGKEREFVAAISRSGGNINYADSVKGRFTISRDNAKNTVYLQMSSLRAEDTAVYYCAAHYLLLPSYISTSTNMYNYWGQGTQVTVSSGGGGSGGGSEVQLVESGGGLVQPGGSLRLSCAASGGTFLTYSMSWVRQAPGKEREFVSSINWSGYMTYYADSVKGRFTISRDNSKNTLYLQMNSLRAEDTAVYYCAAARTAIAAKRSSEFDYWGQGTQVTVSSAAAEVQLVESGGGLVQPGGSLRLSCAASGGTFLTYSMSWVRQAPGKEREFVSSINWSGYMTYYADSVKGRFTISRDNSKNTLYLQMNSLRAEDTAVYYCAAARTAIAAKRSSEFDYWGQGTQVTVSS
notes: Multi-specific single chain antibody with the 9-residue linker G4SG3S between the anti-HSA and anti-CD47 domains
EC50 [1]: 26 nM

B9: HS10 (VHH)
VHH: EVQLVESGGGLVQPGGSLRLSCAASGSTDSAYRMGWFRQAPGKEREFVSAINWSDGRTYYADSVKGRFTISRDNSKNTLYLQMNSLRAEDTAVYYCAADPDSRLYYTVPQNYDYWGQGTLVTVSS
notes: not shown: C-terminal His-tag
Kd (Human serum albumin [2]): 2.89 nM | koff (Human serum albumin [2]): 8.01e-05 s⁻¹ | kon (Human serum albumin [2]): 27700 M⁻¹ s⁻¹

B10: hHS10 (VHH)
VHH: EVQLVESGGGLVQPGGSLRLSCAASGSTDSAYRMGWFRQAPGKEREFVSAINWSDGRTYYADSVKGRFTISRDNSKNTLYLQMNSLRAEDTAVYYCAADPDSRLYYTVPQNYDYWGQGTLVTVSS
notes: also called humanized HS10; not shown: C-terminal His-tag
Kd (Monkey serum albumin): 8.08 nM | Kd (mouse serum albumin): 4.57 nM | Kd (Human serum albumin [3]): 3.18 nM

B11: PL18 (VHH)
VHH: EVQLVESGGGLVQAGGSLRLSCAASGRTFNIYSMAWFRQAPGKEREFVVRINWNRGTTYYADSVKGRFTISRDNAKNTVYLQMSNLKPEDTAVYYCAARGSPSTIGAFTSASHYDYWGQGTQVTVSS
notes: not shown: C-terminal His-tag
Kd (Human PD-L1 antigen): 2.67 nM | koff (Human PD-L1 antigen): 0.000114 s⁻¹ | kon (Human PD-L1 antigen): 42700 M⁻¹ s⁻¹

B12: PL14 (VHH)
VHH: EVQLVESGGGLVQAGGSLRLSCAASGSTSGIYDMGWYRQAPGKLREVVGIITSGGTTNYADFAKGRFTISRDNAKNMMYLQMNSLKPEDTAVYYCNIRTRLIIWGQGTQVTVSS
notes: not shown: C-terminal His-tag
Kd (Human PD-L1 antigen): 0.0177 nM | koff (Human PD-L1 antigen): 1.1e-06 s⁻¹ | kon (Human PD-L1 antigen): 62100 M⁻¹ s⁻¹

B13: PL16 (VHH)
VHH: QVQLVESGGGLVQAGGSLRLSCAFSGGTFLTYSLGWFRQGPGKEREFVASINWSGYMTSYVDSVKGRFTISRDNAKNTVYLQMNSLKPEDTALYYCAAARTAIAAKRSSEFDYWGQGAQVTVSS
notes: not shown: C-terminal His-tag
Kd (Human PD-L1 antigen): 0.0271 nM | koff (Human PD-L1 antigen): 2.98e-06 s⁻¹ | kon (Human PD-L1 antigen): 110000 M⁻¹ s⁻¹
